This is an account of results in publication PMC4954676.

With “synthetic peptide containing NEP-truncated human FpA and the first four residues of the main α-chain”, in the assay with human thrombin (human), the KM of cleavage of the peptide by thrombin (fluorescence polarisation cleavage assay, Michaelis-Menten fit) came out at 630 µM; the fold reduction of kcat/KM of cleavage by thrombin, truncated FpA peptide against the full length peptide is 490 fold; the kcat of cleavage of the peptide by thrombin (fluorescence polarisation cleavage assay, Michaelis-Menten fit) came out at 0.25 s⁻¹.

As to “synthetic peptide containing full-length human FpA and the first four residues of the main α-chain”, in the assay with human thrombin (human), the KM of cleavage of the peptide by thrombin (fluorescence polarisation cleavage assay, Michaelis-Menten fit) stood at 51 µM; the kcat of cleavage of the peptide by thrombin (fluorescence polarisation cleavage assay, Michaelis-Menten fit) is 9.1 s⁻¹; the kcat/KM of cleavage of the peptide by thrombin (fluorescence polarisation cleavage assay, Michaelis-Menten fit) was 180000 M⁻¹ s⁻¹.

As to “synthetic peptide containing NEP-truncated rat FpA and the first four residues of the main α-chain”, the fold reduction of kcat/KM of cleavage by rat thrombin, truncated rat FpA peptide against the full-length rat FpA peptide with rat thrombin (rat) came out at 5.7 fold.
